Numbering of substitutions follows the chain as printed.
What was measured:
[1] = biological target: T1, Human IL-33-his (human, UniProt O95760 112-270, biotinylated with EZ-Link NHS-Biotin where used as IL-33-his-biotin); experiment: SPR Biacore 8K, antibody captured on Protein A/G chip, IL-33-his as analyte, 1:1 model
T1 construct: Used plain (SPR, cell assays) and biotinylated (ELISA); also called IL-33-his-biotin
T1 sequence: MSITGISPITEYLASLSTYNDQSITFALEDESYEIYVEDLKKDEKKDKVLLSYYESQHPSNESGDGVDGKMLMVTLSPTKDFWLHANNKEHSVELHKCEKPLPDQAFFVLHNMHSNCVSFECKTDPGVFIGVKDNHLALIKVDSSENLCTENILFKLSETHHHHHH
Description: A chip with covalently coupled Protein A/G (purchased from GE Healthcare, catalog number BR-1005-30) was used to capture each antibody to be tested, and the relevant operating parameters were as follows: The antibody concentration was […], the contact time was 75 s, the flow rate was […], and the regeneration contact time was 30 s. The IL-33-his antigen was diluted with HBS-EP pH7.4 buffer solution (purchased from GE Healthcare, catalog number BR-1006-69). The maximum concentration was 50 nM, and diluted to 0.39 nM by two-fold dilution. Duplicate wells and 0 concentration point well were set, and 6M guanidine hydrochloride solution was used as the regeneration buffer. The sample was injected on Biacore 8K according to the following parameters, the binding time was 180 s, the dissociation time was 900 s, the flow rate was 30 μL/min, and the regeneration contact time was 30 s. After running, Biacore 8K Evaluation Software was used to analyze the data according to the “1:1 binding kinetics model”, and the binding kinetics parameters of each antibody to IL-33 were obtained.

[2] = biological target: T2, IL-33 mutant protein Q57A (human, UniProt O95760 112-270); experiment: ELISA as Example 9; row Q57A against WT-1
T2 construct: Prokaryotic expression
T2 chain: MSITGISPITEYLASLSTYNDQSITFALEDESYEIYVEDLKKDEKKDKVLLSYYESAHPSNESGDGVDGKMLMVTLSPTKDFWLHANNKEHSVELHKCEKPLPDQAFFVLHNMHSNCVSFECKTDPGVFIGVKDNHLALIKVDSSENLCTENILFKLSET
Description: (§1) SA protein was diluted to 2 μg/mL to coat ELISA plate at 100 μL/well overnight at 4° C. The plate was washed with PBST (PBS containing 0.05% Tween20) for 3 times, and blocked with 2% BSA prepared in PBS at 200 μL/well, at room temperature for 2 h. After the plate was washed twice with PBST, IL-33-his-biotin protein was diluted to 1 μg/mL with 1% BSA prepared in PBST, and was added to ELISA plate at 100 μL/well. The plate was incubated at room temperature for 1 h, and each monoclonal antibody was diluted with 1% BSA prepared in PBST in a 3-fold gradient. The highest concentration of antibody was 10 μg/mL, and the antibody was diluted for 12 gradients. Each diluted monoclonal antibody was added to ELISA wells with 100 μL/well, and the plate was incubated at room temperature for 1 h. Each sample was added to duplicate wells in parallel. The plate was washed with PBST for 3 times, and HRP-anti human IgG Fc secondary antibody prepared with PBST was diluted at an appropriate ratio, and was added to ELISA wells at 100 μL/well. […] Each reaction solution was shaken uniformly and OD450 nm was read on a microplate reader. The data was analyzed and EC₅₀ was calculated.
(§2) Subsequently, according to the experimental method of Example 9, the affinity of the above mutant proteins to 874F7-Hu1 was determined, and IL-33 proteins (WT-1, WT-2, WT-3, and WT-4) without any mutation were set as controls.

[3] = biological target: T3, IL-33 mutant protein L51A (human, UniProt O95760 112-270); experiment: ELISA as Example 9; row L51A
T3 construct: Prokaryotic expression
T3 chain: T2 chain with L51A, A57Q
Description: as §1, §2

[4] = biological target: T4, IL-33 mutant protein S63A (human, UniProt O95760 112-270); experiment: ELISA as Example 9; row S63A against WT-3
T4 construct: Prokaryotic expression
T4 chain: T2 chain with A57Q, S63A
Description: as §1, §2

[5] = biological target: T5, IL-33 mutant protein E55A (human, UniProt O95760 112-270); experiment: ELISA as Example 9; row E55A
T5 construct: Prokaryotic expression
T5 chain: T2 chain with E55A, A57Q
Description: as §1, §2

[6] = biological target: T6, IL-33 mutant protein K46A (human, UniProt O95760 112-270); experiment: ELISA as Example 9; row K46A
T6 construct: Prokaryotic expression
T6 chain: T2 chain with K46A, A57Q
Description: as §1, §2

[7] = biological target: T7, IL-33 mutant protein D65A (human, UniProt O95760 112-270); experiment: ELISA by the method of Example 9 with the IL-33 mutant protein on the plate, 874F7-Hu1 in serial dilution, HRP anti-human IgG Fc, absorbance 450 nm
T7 construct: Prokaryotic expression
T7 chain: T2 chain with A57Q, D65A

Kd [1]: 2.82 nM
koff [1]: 0.00057 s⁻¹
kon [1]: 202000 M⁻¹ s⁻¹
Affinity decline ratio [2]: 0.5 fold
EC50 [3]: 0.91 nM
Affinity decline ratio [4]: 0.9 fold
EC50 [5]: 0.33 nM
EC50 [6]: 0.23 nM
EC50 (read off the curve) [7]: ~2 nM
B1: 874F7-Hu1 (antibody, human IgG4 S228P, kappa)
heavy: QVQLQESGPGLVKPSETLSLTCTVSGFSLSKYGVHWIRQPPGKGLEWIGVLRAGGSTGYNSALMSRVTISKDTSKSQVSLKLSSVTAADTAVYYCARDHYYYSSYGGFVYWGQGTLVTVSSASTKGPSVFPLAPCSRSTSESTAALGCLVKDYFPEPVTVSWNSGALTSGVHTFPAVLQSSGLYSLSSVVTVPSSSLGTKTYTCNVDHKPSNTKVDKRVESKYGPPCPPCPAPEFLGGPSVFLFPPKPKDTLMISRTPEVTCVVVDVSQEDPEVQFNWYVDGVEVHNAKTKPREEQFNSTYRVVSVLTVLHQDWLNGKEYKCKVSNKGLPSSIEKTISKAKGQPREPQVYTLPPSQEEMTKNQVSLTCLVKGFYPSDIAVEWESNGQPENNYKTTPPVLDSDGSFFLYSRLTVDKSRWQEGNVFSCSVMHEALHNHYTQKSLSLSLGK
light: DIQMTQSPSSVSASVGDRVTITCLASQTIGAWLAWYQQKPGKSPKLLIYAATRLADGVPSRFSGSGSGTDFTLTISSLQPEDFATYYCQQLDSSPYTFGQGTKVEIKRTVAAPSVFIFPPSDEQLKSGTASVVCLLNNFYPREAKVQWKVDNALQSGNSQESVTEQDSKDSTYSLSSTLTLSKADYEKHKVYACEVTHQGLSSPVTKSFNRGEC
notes: also called 874F7-Hul; humanized antibody 874F7-Hu1
